Consider two molecules from patent US8748572B2, “RNase a peptides, fragments and uses thereof” (priority 2006, dated 2014).

For one series, the system named is yeast tRNA. As to the kind of experiment: ribonuclease assay with yeast tRNA substrate. As to conditions: for Optimum pH for RNase activity: 50 pmol rRNase, 40 mM sodium phosphate buffers pH 5.5 to 8.0; for Km / kcat: 40 mM sodium phosphate buffer. The class given is biochemical. On the procedure: FIGS. 4 A-D are graphs showing the ribonucleolytic activity of recombinant leukocyte RNases. (A) is a graph showing the optimum pH for RNase activity. Enzymatic activity was determined with 50 pmol rRNase A-1 (open squares) and rRNase A-2 (closed circles) that was incubated with 250 μg/ml yeast tRNA in 40 mM sodium phosphate buffer at the pHs indicated. Measurements of A260 per time were converted to pmol/s as described in […] and Methods. (B) is a graph showing the initial rates for RNase activity. Enzymatic activity was determined as described in (A) with 40 mM sodium phosphate buffer, pH 7.0. (C) is a graph showing the substrate preference for RNase activity. 50 pmol rRNase A-1 (left panel) and rRNase A-2 (right panel) proteins were incubated with 250 μg/ml of poly U (open squares), poly C (closed circles), poly A (open diamonds), poly G (open triangles) and poly I (open circles) in 40 mM sodium phosphate buffers, pH 7.0. A260 was measured after precipitation of undigested RNA at each of the time points indicated. (D) is two panels of graphs showing interaction of RNase with human placental RNase inhibitor (hPR1). RNase activity was measured with […] of bovine pancreatic RNase (left) or […] rRNase A-1 and rRNase A-2 (right) with 250 μg/ml of yeast tRNA as substrate with (+) or without (−) 200 U human placental RNase inhibitor (hPR1) in 40 mM sodium phosphate buffer, pH 7.0. The hPR1 was added to the RNases in buffer 5 min prior to initiation of RNase assay by addition of substrate. *p<0.01.
Next, the enzymatic activity of the two recombinant leukocyte RNases was characterized. Optimum pH was determined as 7.0 with 50 pmol rRNase A-1 or A-2, with 200 μg yeast tRNA substrate in 40 mM sodium phosphate buffers ranging from pH 5.5 to 8.0, as shown in FIG. 4A. […] Enzymatic activity was measured using 10 pmol rRNase A-1 or rRNase in 40 mM sodium phosphate buffer, pH 7.0. Conversion from A260 to pmol ribonucleotide product was carried out as described in reference 29 and in the Methods.
The ribonuclease (RNase) assay with yeast tRNA substrate has been described in detail elsewhere. In this study, 10 μL of a 20 mg/ml solution of yeast tRNA, polyuridylic acid (poly U), polyadenylic acid (poly A), polycytidylic acid (poly C), polyguanylic acid (poly G), or polyinosinic acid (poly I) (Sigma-Aldrich) were added to 800 μl of 40 mM sodium phosphate buffer, pH 7.0 containing recombinant FLAG-tagged chicken RNase protein. In experiments in which the pH optimum was to be determined, 40 mM sodium phosphate buffers of pH 5.0, 5.5, 6.0, 6.5, […] or 8.0 were used instead of the buffer of pH 7.0. In some experiments, 200 U human placental RNase inhibitor (Boehringer Mannheim) were added prior to the addition of the tRNA substrate. Conversion of units A260 per unit time to pmol/s were performed as described in [29], based on the following conversion factors: the average molecular weight of a molecule of tRNA is 28,100 (75-90 ribonucleotides/tRNA molecule×341 MW per ribonucleotide) with an A260 of 1.0 corresponding to 40 μg of RNA.

The next series deals with chicken aortic rings. Put plainly: chick aortic ring assay (angiogenesis). The class given is cell-based. The following applies: for blood vessel formation in aortic rings (in words) / Angiogenesis Scores: 2 μM recombinant RNase; for blood vessel formation in aortic rings (in words): ex vivo; for Angiogenesis Scores: 24 h, Mean ± SEM, 6 to 8 rings; for % change of angiogenesis score vs control: 2 μM, ([rRNase − control]×100/[control]). An excerpt:
The angiogenic activity of a particular RNase A polypeptide or fragment can be assessed by known protocols, such as that described in the methods section and the following described protocol, herein referred to as “a standard angiogenesis assay.” For example, the chick aortic ring sprouting assay, described in the art, can be a standard angiogenesis assay according to the invention. In the assay, aortic arches are dissected from 13-day-old chicken embryos, cleaned free of unwanted tissue and cut into 0.8 mm slices. Each ring is transferred into center of a well of 96-well plate, and ice-cold Matrigel (Becton Dickinson, Bedford, Mass.) is added immediately to imbed the ring. After solidification of the Matrigel, human endothelial-SFM basal growth medium (Invitrogen) is added to each well. After addition of recombinant leukocyte RNase A-1 or RNase A-2 or control preparation, the rings are incubated at 37° C. for 24 h. Vessels sprouted from rings are observed under microscopy, and assessed by blinded observers.
Both chicken leukocyte RNases are structurally related to the mammalian angiogenin lineage, as discussed above and illustrated in FIG. 1. However, none of the non-mammalian ribonucleases evaluated thus far have been reported to have angiogenic activity. Here, the potential angiogenic activity of recombinant leukocyte RNases A-1 and A-2 was evaluated using the chick aortic ring assay as described in the literature. Briefly, aortic rings prepared from 13 day-old chick embryos were incubated with 2 μM recombinant leukocyte RNases (rRNases).
Table 1 details the results of the chick aortic ring assay. Specifically, vessels sprouted from aortic rings treated with 100 μl of human endothelial-SFM basal growth medium and 2 μM recombinant leukocyte RNase were observed under microscopy and assessed by blinded observers, according previously published methods. Each of the groups (named Exp. 1 and Exp. 2) were composed of 6 to 8 rings. Percent (%) change is a value that represents ([rRNase A-1 or A-2−control]×100/[control]). *p<0.05, as determined using the Student's t-test.
The chick aortic ring sprouting assay was performed as described previously with minor modifications. Aortic arches were dissected from 13-day-old chicken embryos, cleaned free of unwanted tissue and cut into 0.8 mm slices. Each ring was transferred into center of a well of 96-well plate. Ice-cold 10 μl of Matrigel (Becton Dickinson, Bedford, Mass.) were added immediately to imbed the ring. After the Matrigel was solidified, 100 μl of human endothelial-SFM basal growth medium (Invitrogen) was added to each well. After addition of recombinant leukocyte RNase A-1 or RNase A-2 or control preparation, the rings were incubated at 37° C. for 24 h. Vessels sprouted from rings were observed under microscopy, and assessed by blinded observers. Each groups composed of 6 to 8 rings.

Entries after “also recorded” stand apart in the source; their conditions may differ. Marks after values point to notes of the source that are not given here.

B1: rRNase A-2: recombinant carboxy-terminal FLAG-tagged Gallus gallus leukocyte RNase A-2, SEQ ID NO: 4, GenBank DQ395276 (protein, listed as Gallus gallus)
chain: VPTYQDFLYKHMDFPKTSFPSNAAYCNVMMVRRGMTAHGRCKSFNTFVHTDPRNLNTLCINQPDQALRTTRRHFRITDCKLIRSHPTCRYSGNQFNRRVRVGCRGGLPVHLDGTSP
modifications: C-terminal FLAG tag
For orientation: Km means the concentration of substrate that gives half-maximal velocity. What is called kcat is the maximal rate divided by the concentration of active sites. With B1, the “Optimum pH for RNase activity” value with yeast tRNA worked out at 7.0. Besides, in the series on yeast tRNA (pH 7.0), the Km came out at 0.5 µM; the kcat was 0.056 s⁻¹; the “Km, times lower than that for RNase A-1” value is 34 times; the “kcat, times lower than that for RNase A-1” value is on record as 50 times. In addition, the “blood vessel formation in aortic rings (in words)” value in the series on chicken aortic rings was “Prominent blood vessel formation; also recorded: has angiogenic activity ex vivo”. Moreover, in the series on chicken aortic rings (Exp. 1), the “Angiogenesis Scores” value is reported as 0.68 ± 0.26* Arbitary Units and the “% change of angiogenesis score vs control” value (from here on “% change”) was “+84%”. Further, in the series with chicken aortic rings (Exp. 2), the “Angiogenesis Scores” value is recorded as 0.60 ± 0.14* Arbitary Units and the “% change” value is “+82%”.

B2: rRNase A-1: recombinant carboxy-terminal FLAG-tagged Gallus gallus leukocyte RNase A-1, SEQ ID NO: 2, GenBank DQ395275 (protein, listed as Gallus gallus)
chain: VPTYQDFLRTHVDFPKTSFPNIAAYCNVMMVRRGINVHGRCKSLNTFVHTDPRNLNTLCINQPNRALRTTQQQLPVTDCKLIRSHPTCSYTGNQFNHRVRVGCWGGLPVHLDGTFP
modifications: C-terminal FLAG tag
For B2, the “Optimum pH for RNase activity” value with yeast tRNA is 7.0. In addition, in the series on yeast tRNA (pH 7.0), the Km turned out to be 17.2 µM and the kcat was 2.61 s⁻¹. The “blood vessel formation in aortic rings (in words)” value in the series on chicken aortic rings is given as “comparable to that in the control”. In the series on chicken aortic rings (Exp. 1), the “Angiogenesis Scores” value was found to be 0.38 ± 0.13 Arbitary Units and the “% change” value is reported as “+2.7%”. Moreover, in the series on chicken aortic rings (Exp. 2), the “Angiogenesis Scores” value was found to be 0.41 ± 0.06 Arbitary Units and the “% change” value was “+24%”.
